Measured values: patent publication US20050054023

Key:
[1] = tested on: T1, TH (rat) Ser19 peptide RRAVSEQDAK
T1 sequence: RRAVSEQDAK

[2] = tested on: T2, MBPtide (Thr97) APRTPGGRR
T2 sequence: APRTPGGR

[3] = tested on: T3, TH (rat) Ser8 peptide PTPSAPSPQPK
T3 sequence: PTPSAPSPQPK

[4] = tested on: T4, rat TH-Ser31 peptide KQAEAVTSPR
T4 sequence: KQAEAVTSPR

[5] = tested on: T5, TH (rat) Ser40 peptide GRRQSLIEDAR
T5 sequence: GRRQSLIEDAR

[6] = tested on: T6, EGF RECEPTOR (Thr669) peptide RRELVEPLTPSGEA
T6 sequence: RRELVEPLTPSGEA

[7] = tested on: T7, type 1 human TH-Ser31 peptide AIMSPRFIGRR
T7 sequence: AIMSPRFIGRR

[8] = tested on: T8, type 2 human TH-Ser31 peptide EAIMVRGQSPRFK
T8 sequence: EAIMVRGQSPRFK

[9] = tested on: T9, type 2 human TH-Ser31 peptide YIMVRGQSPR
T9 sequence: YIMVRGQSPR

[10] = tested on: T10, type 1 human TH-Ser31 peptide YQAEAIMSPRFIGRR-NH2
T10 sequence: YQAEAIMSPRFIGRR

[11] = tested on: T11, rat TH-Ser31 peptide EAVTSPRFIGRR
T11 sequence: EAVTSPRFIGRR

[12] = tested on: T12, rat TH-Ser31 peptide AVTSPRFIGRR
T12 sequence: AVTSPRFIGRR

[13] = tested on: T13, type 1 human TH-Ser31 peptide EAIMSPRFK
T13 sequence: EAIMSPRFK

[14] = tested on: T14, peptide QATGPLSPGPFRR-NH2
T14 sequence: QATGPLSPGPFRR

ERKtide = tested on: T15, ERKtide
T15 sequence: ATGPLSPFGRR

[15] = tested on: T16, type 1 human TH-Ser31 peptide EAIMSPRFIGRR
T16 sequence: EAIMSPRFIGRR

[16] = tested on: T17, type 1 human TH-Ser31 peptide QAEAIMSPRFGRR-NH2
T17 sequence: QAEAIMSPRFGRR

[17] = tested on: T18, type 1 human TH-Ser31 peptide YQAEAIMSPRFIGRRQ
T18 sequence: YQAEAIMSPRFIGRRQ

[18] = tested on: T19, peptide YQATGPLSPGPFRR-NH2
T19 sequence: YQATGPLSPGPFRR

[19] = tested on: T20, type 2 human TH-Ser31 peptide IMVRGQSPR
T20 sequence: IMVRGQSPR

peptide QATGPLSPGFRR-NH2 = tested on: T21, peptide QATGPLSPGFRR-NH2
T21 sequence: QATGPLSPGFRR

[20] = tested on: T22, peptide YQATGPLSPGFRR-NH2
T22 sequence: YQATGPLSPGFRR

Sequence of extracellular signal-regulated protein kinase 2 (purified, recombinant, activated ERK2) (P28482 2-360): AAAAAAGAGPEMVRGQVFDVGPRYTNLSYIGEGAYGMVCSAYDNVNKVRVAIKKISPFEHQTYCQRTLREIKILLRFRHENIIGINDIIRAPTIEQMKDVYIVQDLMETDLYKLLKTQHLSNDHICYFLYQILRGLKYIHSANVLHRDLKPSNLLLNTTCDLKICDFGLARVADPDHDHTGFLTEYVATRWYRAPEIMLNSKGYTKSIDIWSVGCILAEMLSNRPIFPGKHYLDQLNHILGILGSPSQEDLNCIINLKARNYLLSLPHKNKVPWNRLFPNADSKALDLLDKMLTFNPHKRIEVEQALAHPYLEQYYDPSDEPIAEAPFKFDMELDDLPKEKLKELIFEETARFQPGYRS
Sequence of extracellular signal-regulated protein kinase 1 (purified, activated ERK1) (P27361 2-379): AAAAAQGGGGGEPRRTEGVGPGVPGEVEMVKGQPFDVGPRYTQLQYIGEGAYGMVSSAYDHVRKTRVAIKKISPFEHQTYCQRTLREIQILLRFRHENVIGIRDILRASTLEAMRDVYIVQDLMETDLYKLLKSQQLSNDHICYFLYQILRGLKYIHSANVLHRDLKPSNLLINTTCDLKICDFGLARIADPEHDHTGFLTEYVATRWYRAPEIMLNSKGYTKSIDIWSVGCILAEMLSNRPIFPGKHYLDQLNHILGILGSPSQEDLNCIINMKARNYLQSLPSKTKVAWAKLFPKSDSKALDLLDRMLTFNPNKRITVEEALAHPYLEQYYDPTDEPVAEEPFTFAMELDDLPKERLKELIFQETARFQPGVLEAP

Question: For “extracellular signal-regulated protein kinase 1 (purified, activated ERK1)”, which RELATIVE ^32P INCORPORATION (% OF MBP) [1] is on record?
Answer: < 1 % OF MBP

Question: What about the RELATIVE ^32P INCORPORATION (% OF MBP) [2] of the same substance?
Answer: 28 % OF MBP

Question: And the “^32P incorporation” value [2]?
Answer: ^32P incorporation into MBPtide (SEQ ID NO: 2) was 330 nmol/min/mg

Question: What about the RELATIVE ^32P INCORPORATION (% OF MBP) [3] of the same substance?
Answer: < 1 % OF MBP

Question: What about the RELATIVE ^32P INCORPORATION (% OF MBP) [4] of the same substance?
Answer: 5 % OF MBP

Question: What about the RELATIVE ^32P INCORPORATION (% OF MBP) [5] of the same substance?
Answer: < 1 % OF MBP

Question: What about the RELATIVE ^32P INCORPORATION (% OF MBP) [6] of the same substance?
Answer: 13 % OF MBP

Question: What about the RELATIVE ^32P INCORPORATION (% OF MBP) (myelin basic protein) of the same substance?
Answer: 100 % OF MBP

Question: Which results are given for “extracellular signal-regulated protein kinase 2 (purified, recombinant, activated ERK2)”?
Answer: RELATIVE ^32P INCORPORATION (% 3.3 µmol/min/mg) (% 3.3 µmol/min/mg) [7]: 29; RELATIVE ^32P INCORPORATION (% 3.3 µmol/min/mg) (% 3.3 µmol/min/mg) [8]: 2; RELATIVE ^32P INCORPORATION (% 3.3 µmol/min/mg) (% 3.3 µmol/min/mg) [9]: 1; Km(app) [2]: 2000 µM; Vmax(app) Relative [2]: 46 Relative; RELATIVE ^32P INCORPORATION (% 3.0 µmol/min/mg), Mean (% 3.0 µmol/min/mg) [10]: 117; RELATIVE ^32P INCORPORATION (% 3.3 µmol/min/mg) (% 3.3 µmol/min/mg) [10]: 100; ^32P incorporation [10]: 100 percent 32p incorporation reflects 3.3 µmol/min/mg; RELATIVE ^32P INCORPORATION (% 3.3 µmol/min/mg) (% 3.3 µmol/min/mg) [11]: 20; RELATIVE ^32P INCORPORATION (% 3.3 µmol/min/mg) (% 3.3 µmol/min/mg) [12]: 9; Km(app) [13]: 1400 µM; RELATIVE ^32P INCORPORATION (% 3.3 µmol/min/mg) (% 3.3 µmol/min/mg) [13]: 21; Vmax(app) Relative [13]: 42 Relative; Km(app) [4]: 1800 µM; RELATIVE ^32P INCORPORATION (% 3.3 µmol/min/mg) (% 3.3 µmol/min/mg) [4]: 7; Vmax(app) Relative [4]: 9 Relative; RELATIVE ^32P INCORPORATION (% 3.0 µmol/min/mg), Mean (% 3.0 µmol/min/mg) [14]: 143; Km(app) (ERKtide): 600 µM; Vmax(app) Relative (ERKtide): 82 Relative; apparent Vmax (ERKtide): The apparent Vmax of ERKtide (SEQ ID NO: 23) was 9.4 µmol/min/mg; RELATIVE ^32P INCORPORATION (% 3.3 µmol/min/mg) (% 3.3 µmol/min/mg) [15]: 41; RELATIVE ^32P INCORPORATION (% 3.0 µmol/min/mg), Mean (% 3.0 µmol/min/mg) [16]: 107; Km(app) [17]: 1000 µM; RELATIVE ^32P INCORPORATION (% 3.0 µmol/min/mg), Mean (% 3.0 µmol/min/mg) [17]: 100; RELATIVE ^32P INCORPORATION (% 3.3 µmol/min/mg) (% 3.3 µmol/min/mg) [17]: 80; Vmax(app) Relative [17]: 80 Relative; ^32P incorporation [17]: 100 percent ^32P incorporation reflects 3.0 µmol/min/mg; RELATIVE ^32P INCORPORATION (% 3.0 µmol/min/mg), Mean (% 3.0 µmol/min/mg) [18]: 164; RELATIVE ^32P INCORPORATION (% 3.3 µmol/min/mg) (% 3.3 µmol/min/mg) [19]: 1; RELATIVE ^32P INCORPORATION (% 3.0 µmol/min/mg), Mean (% 3.0 µmol/min/mg) (peptide QATGPLSPGFRR-NH2): 182; RELATIVE ^32P INCORPORATION (% 3.0 µmol/min/mg), Mean (% 3.0 µmol/min/mg) [20]: 215
